The supplement of paper PMC10567573

B1: KRT18 (parent)
chain: RAQYDELARKNREELDKYWSQQIE
B2: INTS3 (parent)
chain: FSDDEEDLNSKGKKREFRFHPIKE

Variants of: B1
Assay: protein stability index of a GFP-peptide fusion (GPS, HEK-293T) (PSI 1-6); higher = more stable
Details: c terminus: a fixed tail appended
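Also: lentivirally expressed fusions sorted by FACS into six bins by GFP to DsRed ratio, PSI derived from sequencing read proportions per bin multiplied by bin number.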

Protein stability index of substitutions, site by site:
L15: I 3.94; D 4.9; F 3.22; P 4.6; W 1.95; E 3.98; K 3.87; R 4.22; A 4.37; C 3.18; S 4.19; N 3.57; G 4.07; Q 4.71; M 4.06; Y 3.3; H 4.25; V 3.41; T 4.1
Q21: Y 3.08; S 3.4; K 3.06; D 2.88; C 4; W 3.28; E 2.88; A 3.05; N 3.71; G 3.58; M 2.98; V 3.17; I 3.05; T 3.76; R 3.81; P 4.25; F 3.62; H 3.41; L 2.74
S20: A 3.15; K 1.22; F 3.04; Q 2.17; T 2.79; H 1.59; I 2.31; Y 2.79; L 2.33; E 4.23; D 4.29; R 2.17; G 3.97; P 3.85; W 2.6; N 2.79; M 2.56; C 2.63; V 3.18
R9: N 3.46; E 3.69; S 3.66; M 3.17; H 3.4; K 3.52; C 3.6; L 3.27; P 4.28; W 2.62; G 4.53; D 4.4; T 3.53; Q 3.16; F 3.88; Y 3.64; A 3.92; V 2.86; I 3.34
K17: A 2.7; P 4.25; I 3.16; E 3.94; M 3.51; S 3.67; G 3.57; H 3.14; C 3.28; Q 2.96; W 3.65; R 2.56; D 4.21; Y 3.42; L 3.14; F 3.62; V 3.64; T 3.21; N 3.02
N11: Q 3.87; L 2.66; W 2.63; D 4.23; H 3.75; I 2.37; K 3.96; T 2.8; V 2.75; C 2.81; S 4.15; A 4; G 3.71; Y 2.27; P 4.02; M 2.81; R 3.39; F 1.94; E 4.54
D16: R 3.08; S 2.36; I 2.15; A 2.56; T 2.92; W 2.21; Y 2.72; F 2.1; L 3.12; M 2.74; G 2.03; C 2.4; N 1.42; Q 2.69; H 3.35; E 3.39; P 3.63
W19: P 5.03; K 4.41; Q 5.13; T 4.97; G 5.07; R 4.71; M 5.01; N 4.54; D 4.56; I 4.5; L 4.42; A 4.73; E 5.28; C 4.91; S 4.25; H 4.85; V 4.68; Y 4.58; F 4.19
Q22: R 3.78; G 3.68; N 3.31; C 2.31; D 4.67; L 3.15; W 4; T 3.99; S 3.82; Y 3.44; V 3.08; F 2.75; M 2.67; A 3.44; I 3.37; E 3.7; P 3.83; K 4.27; H 4.67
Y18: I 3.97; D 5.12; N 4.92; C 3.95; L 4.6; W 3.62; V 4.33; E 5.17; M 4.36; F 3.5; T 4.57; R 4.09; A 4.62; H 4.06; K 4.24; P 4.34; S 4.51; G 4.27; Q 4.77
K10: R 3.03; V 3.15; M 4.04; P 3.83; Y 4.15; H 4.16; Q 3.14; S 3.23; W 2.81; L 3.73; D 4.73; C 3.02; I 2.79; N 3.79; G 4.05; F 3.34; T 3.5; E 3.33; A 2.97
A8: D 4.2; H 2.17; T 2.33; C 2.75; Q 3.75; G 3.72; L 2.34; W 1.31; P 4.42; N 3.54; I 3.17; V 2.6; F 3.41; S 3.5; K 3.85; M 2.66; E 4.57; R 3.51
E24: V 3.01; T 3.36; F 3.16; C 3.05; W 2.5; R 2.3; L 2.23; H 3.72; A 2.48; N 3.13; Q 2.94; Y 2.73; I 3.12; S 3.27; D 3.8; P 3.87; G 3.77; K 3.34; M 2.31
R12: N 3.94; L 4.56; P 4.08; G 3.32; A 4.25; V 4.34; T 4.19; W 4.56; F 4.13; I 4.34; S 4.56; K 4.37; C 3.98; H 3.64; E 4.27; Y 4.05; D 4.17; M 3.72; Q 4.12
E14: H 3.29; P 3.81; C 3.42; S 3.5; V 3.62; T 3.56; Q 3.85; Y 3.07; F 2.5; K 2.94; N 3.04; D 3.94; I 2.62; M 2.92; W 3.89; R 2.87; A 3.82; G 3.83; L 2.97
E13: H 3.54; Q 2.91; I 2.05; Y 3.05; M 2.82; C 2.81; A 3.41; L 3.07; K 3.2; P 2.99; N 3.58; S 3.96; D 3.54; V 2.07; R 3.31; F 3.1; T 3.82; G 3.92; W 2.65
I23: A 3.97; G 4.41; E 5.1; F 2.23; K 5.03; W 3.97; L 2.21; R 4.68; P 4.96; Q 4.43; T 4.69; H 2.23; S 4.96; V 4.14; D 5.28; N 4.39; C 3.45; M 2.28
L7: W 2.13; T 3.68; Y 3.06; V 3.41; S 3.84

Variants of: B2
Assay: as above
Details: c terminus: a fixed tail appended

Protein stability index: each site, then its substitutions
P21: S 3.88
R18: K 4.63; P 4.76
D4: L 2.43; M 2.4
N9: C 2.67
E5: I 2.81
H20: T 4.59
K11: G 3.02
K23: I 2.93
